Reference: the supplement of paper PMC10567573

B1: ZER1 (parent)
chain: FDGPEAWGVCEPQREEVEERMWAA

Variants of: B1
Experiment: protein stability index of a GFP-peptide fusion (GPS, HEK-293T) (PSI 1-6); higher = more stable
Settings: c terminus: a fixed tail appended
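Note: lentivirally expressed fusions sorted by FACS into six bins by GFP to DsRed ratio, PSI derived from sequencing read proportions per bin multiplied by bin number.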

| Variant | protein stability index |
| --- | --- |
| FDGPEAWGVCEPQRESVEERMWAA [E16S] | 2.25 |
| FDGPEAWGVCEPQRECVEERMWAA [E16C] | 2.24 |
| FDGPEAWGVCFPQREEVEERMWAA [E11F] | 1.89 |
| FDGPEAWGVCCPQREEVEERMWAA [E11C] | 2.15 |
| FDGPEAWGVCQPQREEVEERMWAA [E11Q] | 1.9 |
| FDGPEAWGVCLPQREEVEERMWAA [E11L] | 1.85 |
| FDGPEAWGVCKPQREEVEERMWAA [E11K] | 2.12 |
| FDGPYAWGVCEPQREEVEERMWAA [E5Y] | 2.76 |
| FDGPVAWGVCEPQREEVEERMWAA [E5V] | 3.33 |
| FDGPQAWGVCEPQREEVEERMWAA [E5Q] | 3.54 |
| FDGPGAWGVCEPQREEVEERMWAA [E5G] | 3.26 |
| FDGPKAWGVCEPQREEVEERMWAA [E5K] | 3.13 |
| FDGLEAWGVCEPQREEVEERMWAA [P4L] | 2.47 |
| FDGYEAWGVCEPQREEVEERMWAA [P4Y] | 1.95 |
| FDGDEAWGVCEPQREEVEERMWAA [P4D] | 3.89 |
| FDGVEAWGVCEPQREEVEERMWAA [P4V] | 2.48 |
| FDGSEAWGVCEPQREEVEERMWAA [P4S] | 3.29 |
| FDGPEAWGVQEPQREEVEERMWAA [C10Q] | 3.26 |
| FDGPEAWGVEEPQREEVEERMWAA [C10E] | 3.93 |
| FDGPEAWGVYEPQREEVEERMWAA [C10Y] | 2.86 |
| FDGPEAWGVDEPQREEVEERMWAA [C10D] | 4.42 |
| FDGPEAWGVWEPQREEVEERMWAA [C10W] | 2.6 |
| FDGPEAWGVHEPQREEVEERMWAA [C10H] | 3.64 |
| FDGPEAWGVKEPQREEVEERMWAA [C10K] | 3.48 |

| Variant | protein stability index |
| --- | --- |
| FDGPEAWGVVEPQREEVEERMWAA [C10V] | 2.55 |
| FDGPEVWGVCEPQREEVEERMWAA [A6V] | 2.76 |
| FDGPEAWGVCEPQREEVEELMWAA [R20L] | 2.55 |
| FDGPEAWGVCEPQREEVEEEMWAA [R20E] | 3.17 |
| FDGPEAWGVCEPQREEVEERMWTA [A23T] | 2.67 |
| FDGPEAWGVCEPQREEVEERMWCA [A23C] | 2.46 |
| FDGPEAWGVCEPQREEVEERMWGA [A23G] | 2.9 |
| FDGPEAWGVCEPQREEVEERMWYA [A23Y] | 2.04 |
| FDGPEAWGVCEPQREEVEERMWSA [A23S] | 2.62 |
| FDGPEAWGVCEPQREEVEFRMWAA [E19F] | 2.1 |
| FDGPEAWGVCEPQREEVEDRMWAA [E19D] | 2.48 |
| FDGPEAWGVCEPQREEVEIRMWAA [E19I] | 2.09 |
| FDGPEAWGVCEPQREEVEPRMWAA [E19P] | 2.21 |
| FDGPEAWGVCEPQREEVEERTWAA [M21T] | 2.4 |
| FDGPEAWGVCEPQREEVEERIWAA [M21I] | 2.63 |
| FDGPEAWGVCEPQREEVEERRWAA [M21R] | 2.69 |
| FDGPEAWLVCEPQREEVEERMWAA [G8L] | 3.64 |
| FDGPEAWNVCEPQREEVEERMWAA [G8N] | 2.62 |
| FDGPEAWEVCEPQREEVEERMWAA [G8E] | 4.19 |
| FDGPEAWQVCEPQREEVEERMWAA [G8Q] | 2.74 |
| FDGPEAWIVCEPQREEVEERMWAA [G8I] | 2.25 |
| FDGPEAWVVCEPQREEVEERMWAA [G8V] | 1.6 |
| FDGPEAWDVCEPQREEVEERMWAA [G8D] | 3.75 |
| FDGPEAWGVCEPQDEEVEERMWAA [R14D] | 2.88 |

| Variant | protein stability index |
| --- | --- |
| FDGPEAWGVCEPQYEEVEERMWAA [R14Y] | 2.46 |
| FDGPEAWGVCEPQPEEVEERMWAA [R14P] | 3.26 |
| FDGPEAWGVCEPQGEEVEERMWAA [R14G] | 3.36 |
| FLGPEAWGVCEPQREEVEERMWAA [D2L] | 2.62 |
| FWGPEAWGVCEPQREEVEERMWAA [D2W] | 3.21 |
| FKGPEAWGVCEPQREEVEERMWAA [D2K] | 3.26 |
| FQGPEAWGVCEPQREEVEERMWAA [D2Q] | 2.69 |
| FDGPEAWGVCEPQREEVEERMWAG [A24G] | 3.03 |
| FDGPEAWGVCEPQREEVEERMWAI [A24I] | 2.13 |
| FDGPEAWGVCEPQREEVEERMWAD [A24D] | 2.88 |
| EDGPEAWGVCEPQREEVEERMWAA [F1E] | 4.99 |
| WDGPEAWGVCEPQREEVEERMWAA [F1W] | 4.5 |
| YDGPEAWGVCEPQREEVEERMWAA [F1Y] | 3.15 |
| SDGPEAWGVCEPQREEVEERMWAA [F1S] | 4.77 |
| FDGPEAWGMCEPQREEVEERMWAA [V9M] | 2.63 |
| FDGPEAWGSCEPQREEVEERMWAA [V9S] | 4.12 |
| FDGPEAWGTCEPQREEVEERMWAA [V9T] | 3.15 |
| FDGPEAWGVCEPQREEVEERMNAA [W22N] | 3.17 |
| FDGPEAWGVCEPQREEVEERMCAA [W22C] | 3.17 |
| FDGPEAWGVCEPQREEVEERMYAA [W22Y] | 3.73 |
| FDGPEAWGVCEPQREEDEERMWAA [V17D] | 2.61 |
| FDGPEAWGVCEPQREEIEERMWAA [V17I] | 2.26 |
| FDGPEAWGVCEPQREEGEERMWAA [V17G] | 2.36 |
| FDGPEAMGVCEPQREEVEERMWAA [W7M] | 3.64 |

| Variant | protein stability index |
| --- | --- |
| FDGPEADGVCEPQREEVEERMWAA [W7D] | 5.1 |
| FDGPEAIGVCEPQREEVEERMWAA [W7I] | 4.89 |
| FDGPEAGGVCEPQREEVEERMWAA [W7G] | 4.94 |
| FDGPEAWGVCEPQREEVHERMWAA [E18H] | 3.04 |
| FDGPEAWGVCEPQREEVAERMWAA [E18A] | 2.27 |
| FDPPEAWGVCEPQREEVEERMWAA [G3P] | 4.42 |
| FDVPEAWGVCEPQREEVEERMWAA [G3V] | 1.63 |
| FDDPEAWGVCEPQREEVEERMWAA [G3D] | 2.56 |
| FDMPEAWGVCEPQREEVEERMWAA [G3M] | 2.1 |
| FDGPEAWGVCEPQRVEVEERMWAA [E15V] | 2.63 |
| FDGPEAWGVCEPQRLEVEERMWAA [E15L] | 2.2 |
| FDGPEAWGVCEPQRMEVEERMWAA [E15M] | 2.34 |
| FDGPEAWGVCEPQRHEVEERMWAA [E15H] | 1.79 |
| FDGPEAWGVCEPQRFEVEERMWAA [E15F] | 1.56 |
| FDGPEAWGVCESQREEVEERMWAA [P12S] | 3.14 |
| FDGPEAWGVCEPAREEVEERMWAA [Q13A] | 2.72 |
| FDGPEAWGVCEPVREEVEERMWAA [Q13V] | 3.23 |
| FDGPEAWGVCEPIREEVEERMWAA [Q13I] | 2.76 |
| FDGPEAWGVCEPFREEVEERMWAA [Q13F] | 2.31 |
| FDGPEAWGVCEPSREEVEERMWAA [Q13S] | 2.71 |
| FDGPEAWGVCEPRREEVEERMWAA [Q13R] | 2.21 |
| FDGPEAWGVCEPLREEVEERMWAA [Q13L] | 2.68 |
